The source of these data is patent US9260500B2, “Peptide and use thereof” (Takeda Pharmaceutical Company Limited, priority 2009, dated 2016).

Starred links: 1 amine or outer side, 2 acyl side, 3 side chain; linkers in the order of their positions; H or OH if unused. Non-standard residues stand in square brackets, D forms with d. Azetidine3carboxylic = O=C(C1CN([*:1])C1)[*:2]; tBuAla = CC(C)(C)C[C@H](N)C(=O)O; 4Pal = N[C@@H](Cc1ccncc1)C(=O)O; dHyp = O=C(O)[C@H]1C[C@H](O)CN1; Cha = N[C@@H](CC1CCCCC1)C(=O)O; dCha = N[C@H](CC1CCCCC1)C(=O)O; Aipe = 3-aminobutanoic acid; Iva = CC[C@](C)(N)C(=O)O; dAze = O=C(O)[C@H]1CCN1; Abu = CC[C@H](N)C(=O)O; Aib = CC(C)(N)C(=O)O

Assay [1] concerns the target T1, human Y2 receptor (Homo sapiens, UniProt P49146).
T1 construct: expressed in transfected cells; membrane fraction
T1 sequence (P49146 1-381): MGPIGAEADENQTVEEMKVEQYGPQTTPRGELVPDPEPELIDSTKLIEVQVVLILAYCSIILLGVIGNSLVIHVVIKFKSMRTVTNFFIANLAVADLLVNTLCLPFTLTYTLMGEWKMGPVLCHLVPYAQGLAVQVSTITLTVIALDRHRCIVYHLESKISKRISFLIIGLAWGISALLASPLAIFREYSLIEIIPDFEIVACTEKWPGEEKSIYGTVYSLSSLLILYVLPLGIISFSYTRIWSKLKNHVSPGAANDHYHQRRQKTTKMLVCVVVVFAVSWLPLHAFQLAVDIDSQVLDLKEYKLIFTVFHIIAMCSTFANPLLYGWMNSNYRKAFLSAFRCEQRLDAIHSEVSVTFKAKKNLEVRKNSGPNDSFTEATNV
Put plainly: Receptor Binding Assay (RBA) for Human Y2, [125I]-PYY displacement on hY2R/CHO membrane fraction. The settings on record: IC50 of test compound/IC50 of PYY(3-36) (PYY(3-36) taken as 1). As to the method:
(1) Construction of Expression Plasmid for the Human Y2 Receptor (Y2R) Gene
PCR was performed by a reaction using Pfu DNA polymerase ([…]), with a human brain cDNA (PT3158-1, Clontech) as the template, wherein synthetic DNAs with the following sequences were used as a combination of 5′ and 3′ primers, whereby the human Y2R gene was cloned. Primer 1 was prepared on the basis of base sequence information on the human Y2R gene (Refseq ID No. NM_000910) with the addition of Kozak's consensus sequence. Primer 2 was prepared on the basis of base sequence information on the human Y2R gene.
The PCR product obtained was cloned into pCR4-Blunt-TOPO (Invitrogen), and the plasmid was extracted according to a conventional method (QIAwell 8 Plus, QIAGEN). After confirming the base sequence, the human Y2R gene was re-cloned by a PCR reaction with the plasmid DNA as the template, using Primer 1 as the 5′ primer and Primer 2 as the 3′ primer. The PCR was performed using the Pyrobest DNA polymerase (TaKaRa). The PCR product obtained was re-cloned into pCR-Blunt II-TOPO (Invitrogen), and the plasmid was extracted according to a conventional method (QIAGEN). An Xho I restriction enzyme digestion site and an Spe I restriction enzyme digestion site are present in the cloning site of the pCR-Blunt II-TOPO; a plasmid clone was selected wherein the human Y2R gene was inserted in the orientation such that the Xho I restriction enzyme digestion site was positioned upstream of Primer 1, and the Spe I restriction enzyme digestion site was positioned downstream of Primer 2. After confirming the base sequence, the plasmid clone was digested with the restriction enzymes Xho I and Spe I to yield a DNA fragment. The DNA fragment was inserted into the animal cell expression vector pAKKO-111H (the same plasmid as pAKKO-1.111H described in Biochem. Biophys. Acta, Hinuma, S. et al., 1219, 251-259 (1994)), which was enzymatically digested with Sal I and Spe I, to yield the expression plasmid pAK-hY2R (pAKKO-111H/Y2R).
(2) Test Method: Receptor Binding Assay (RBA) for Human Y2
A human NPY2R (hY2R) stable expression cell line was acquired by transducing the animal cell expression plasmid pAK-hY2R into CHO/dhfr-cells using the CellPhect Transfection kit (Amersham Pharmacia Biotech Co.). First, 240 μl of Buffer A (attached to the CellPhect Transfection kit) was added to 9.6 μg of the plasmid DNA dissolved in 240 μl of distilled water; this mixture was stirred and allowed to stand for 10 minutes, after which 480 μL of Buffer B (attached to the CellPhect Transfection kit) was added, and the mixture was vigorously stirred to form a liposome containing the DNA. 2.5×10^5 or 4×10^5 CHO/dhfr− cells (obtained from ATCC) were seeded to 60 mm petri dishes, and cultured in Ham's F-12 medium (Sigma Co.) containing 10% fetal bovine serum (BioWest Co.) at 37° C. in 5% gaseous carbon dioxide for 1 day, after which 480 μL of the liposome was added drop by drop on to the cells in each petri dish. This was cultured at 37° C. in 5% gaseous carbon dioxide for 6 hours, after which the cells were twice washed with serum-free Ham's F-12 medium; 3 mL of 15% glycerol was added onto the cells in the petri dish and treated for 2 minutes. This was again washed 3 times with serum-free Ham's F-12 medium, after which the cells were cultured in Ham's F-12 medium containing 10% fetal bovine serum at 37° C. in 5% gaseous carbon dioxide. The cells were dispersed by trypsinization and recovered from the petri dishes, and seeded to a 6-well plate at 2.5×10^4 or 4×10^4 cells per well; cultivation was begun in Dulbecco's modified Eagle medium <DMEM> medium (Sigma Co.) containing dialyzed 10% fetal bovine serum (Invitrogen Co.) at 37° C. in 5% gaseous carbon dioxide. Since plasmid-introduced transformant CHO cells grow in the medium, whereas cells without plasmid introduction die gradually, about 20 colonies of transformed CHO cell that had grown 9-13 days after the start of the cultivation were isolated. […]

Assay [2] addresses T1, human Y2 receptor. Briefly: Human Y2 Receptor G Protein Binding Assay (GBA), [35S]GTPγS. The class given is biochemical. Particulars: EC50 of test compound/EC50 of PYY(3-36) (PYY3-36 taken as 1), hY2R/CHO membrane fraction. The protocol: (3) Test Method: Human Y2 Receptor G Protein Binding Assay (GBA)
The agonist activity of the compound of the present invention against the human Y2 receptor was measured by the method described below.
2 μL of the test compound, serially diluted with DMSO from 100 μM to 1 nM, was dispensed to a 96-well plate, and 100 μL of the membrane fraction, previously diluted with an assay buffer (50 mM Tris, 5 mM MgCl2, 150 mM NaCl, […], 0.03% NaN3, 0.1% BSA, pH 7.4) to 1 μg protein/mL, was dispensed thereto, subsequently, 100 μL of a [^35S]GTPγS (NEG030H, PerkinElmer, previously diluted with the assay buffer to 1 nM) was added, and they were mixed by pipetting. After incubation at room temperature for 120 minutes, the mixture was filtered through the cell harvester FilterMate (PerkinElmer) using the UniFilter-96 GF/C (PerkinElmer), and the filter was washed 3 times with a filtering buffer (50 mM Tris, 5 mM MgCl2, 150 mM NaCl, 0.03% NaN3, 0.05% CHAPS, pH 7.4). Thereafter, UniFilter-96 GF/C was dried in a mechanical drier for 1 hour, 15 μl of the liquid scintillator MicroScint O (PerkinElmer) was added to each well, and a measurement was taken using TopCount (PerkinElmer). The data obtained were analyzed using Prism to calculate the EC50 value. The agonist activity of the test compound was expressed as a ratio to the EC50 value of PYY3-36 taken as 1 (EC50 Ratio: EC50 of test compound/EC50 of PYY(3-36)). The results are shown in the GBA column in Table 5 (Table 5-1-Table 5-10).
In general terms: GTPγS resists hydrolysis and so accumulates on activated G proteins.

For “Ac-[Abu23, D-Pro24, Abu26, Cha27,28,36, Aib31]-PYY(23-36) (Ac-[Abu][dP]R[Abu][Cha][Cha]NL[Aib]TRQR[Cha]-NH2; SMILES CC[C@H](NC(=O)[C@H](CCCNC(=N)N)NC(=O)[C@H]1CCCN1C(=O)[C@H](CC)NC(C)=O)C(=O)N[C@@H](CC1CCCCC1)C(=O)N[C@@H](CC1CCCCC1)C(=O)N[C@@H](CC(N)=O)C(=O)N[C@@H](CC(C)C)C(=O)NC(C)(C)C(=O)N[C@H](C(=O)N[C@@H](CCCNC(=N)N)C(=O)N[C@@H](CCC(N)=O)C(=O)N[C@@H](CCCNC(=N)N)C(=O)N[C@@H](CC1CCCCC1)C(N)=O)[C@@H](C)O) [compound No. 105]”, in the assay with human Y2 receptor [1], the “RBA IC50 Ratio” value was found to be 6.9. For the same substance, in the assay with human Y2 receptor [2], the “GBA EC50 Ratio” value was 4.0.
The corresponding values for “Ac-[Aipe24, Pya(4)26, Cha27,36, Aib28,31, Lys30]-PYY(23-36) (Ac-S[Aipe]R[4Pal][Cha][Aib]NK[Aib]TRQR[Cha]-NH2) [compound No. 243]” are 1.3 and 2.
For “Ac-[Ala26, Ile28,31, Arg(Me)35]-PYY(22-36) [compound No. 1]”, in that order: 50 and 13.
The corresponding values for “Ac-[Arg23, D-Pro24, Iva25, Pya(4)26, Cha27,36, Aib28,31, Lys30]-PYY(23-36) (Ac-R[dP][Iva][4Pal][Cha][Aib]NK[Aib]TRQR[Cha]-NH2; SMILES CC[C@](C)(NC(=O)[C@H]1CCCN1C(=O)[C@H](CCCNC(=N)N)NC(C)=O)C(=O)N[C@@H](Cc1ccncc1)C(=O)N[C@@H](CC1CCCCC1)C(=O)NC(C)(C)C(=O)N[C@@H](CC(N)=O)C(=O)N[C@@H](CCCCN)C(=O)NC(C)(C)C(=O)N[C@H](C(=O)N[C@@H](CCCNC(=N)N)C(=O)N[C@@H](CCC(N)=O)C(=O)N[C@@H](CCCNC(=N)N)C(=O)N[C@@H](CC1CCCCC1)C(N)=O)[C@@H](C)O) [compound No. 321]” are 0.88 and 0.78.
Regarding “Ac-[Aze(3)24, Cha27,28,36, Aib31]-PYY(23-36) (Ac-S[Azetidine3carboxylic]RH[Cha][Cha]NL[Aib]TRQR[Cha]-NH2; SMILES CC(=O)N[C@@H](CO)C(=O)N1CC(C(=O)N[C@@H](CCCNC(=N)N)C(=O)N[C@@H](Cc2c[nH]cn2)C(=O)N[C@@H](CC2CCCCC2)C(=O)N[C@@H](CC2CCCCC2)C(=O)N[C@@H](CC(N)=O)C(=O)N[C@@H](CC(C)C)C(=O)NC(C)(C)C(=O)N[C@H](C(=O)N[C@@H](CCCNC(=N)N)C(=O)N[C@@H](CCC(N)=O)C(=O)N[C@@H](CCCNC(=N)N)C(=O)N[C@@H](CC2CCCCC2)C(N)=O)[C@@H](C)O)C1) [compound No. 113]”, in the assay with human Y2 receptor [1], the “RBA IC50 Ratio” value is 11. Further, in the assay with human Y2 receptor [2], the “GBA EC50 Ratio” value came to 4.7.
Regarding “Ac-[D-Aze(2)24, Cha27,28,36, Aib31]-PYY(23-36) (Ac-S[dAze]RH[Cha][Cha]NL[Aib]TRQR[Cha]-NH2; SMILES CC(=O)N[C@@H](CO)C(=O)N1CC[C@@H]1C(=O)N[C@@H](CCCNC(=N)N)C(=O)N[C@@H](Cc1c[nH]cn1)C(=O)N[C@@H](CC1CCCCC1)C(=O)N[C@@H](CC1CCCCC1)C(=O)N[C@@H](CC(N)=O)C(=O)N[C@@H](CC(C)C)C(=O)NC(C)(C)C(=O)N[C@H](C(=O)N[C@@H](CCCNC(=N)N)C(=O)N[C@@H](CCC(N)=O)C(=O)N[C@@H](CCCNC(=N)N)C(=O)N[C@@H](CC1CCCCC1)C(N)=O)[C@@H](C)O) [compound No. 153]”, the “RBA IC50 Ratio” value with human Y2 receptor [1] is on record as 1.7. Moreover, in the assay with human Y2 receptor [2], the “GBA EC50 Ratio” value worked out at 1.3.
The corresponding values for “Ac-[D-Cha24, Abu26, Cha27,28,36, Aib31]-PYY(24-36) (Ac-[dCha]R[Abu][Cha][Cha]NL[Aib]TRQR[Cha]-NH2; SMILES CC[C@H](NC(=O)[C@H](CCCNC(=N)N)NC(=O)[C@@H](CC1CCCCC1)NC(C)=O)C(=O)N[C@@H](CC1CCCCC1)C(=O)N[C@@H](CC1CCCCC1)C(=O)N[C@@H](CC(N)=O)C(=O)N[C@@H](CC(C)C)C(=O)NC(C)(C)C(=O)N[C@H](C(=O)N[C@@H](CCCNC(=N)N)C(=O)N[C@@H](CCC(N)=O)C(=O)N[C@@H](CCCNC(=N)N)C(=O)N[C@@H](CC1CCCCC1)C(N)=O)[C@@H](C)O) [compound No. 84]” are 15 and 13.
With “Ac-[D-Hyp24, Cha27,28,36, Aib31]-PYY(23-36) (Ac-S[dHyp]RH[Cha][Cha]NL[Aib]TRQR[Cha]-NH2; SMILES CC(=O)N[C@@H](CO)C(=O)N1C[C@@H](O)C[C@@H]1C(=O)N[C@@H](CCCNC(=N)N)C(=O)N[C@@H](Cc1c[nH]cn1)C(=O)N[C@@H](CC1CCCCC1)C(=O)N[C@@H](CC1CCCCC1)C(=O)N[C@@H](CC(N)=O)C(=O)N[C@@H](CC(C)C)C(=O)NC(C)(C)C(=O)N[C@H](C(=O)N[C@@H](CCCNC(=N)N)C(=O)N[C@@H](CCC(N)=O)C(=O)N[C@@H](CCCNC(=N)N)C(=O)N[C@@H](CC1CCCCC1)C(N)=O)[C@@H](C)O) [compound No. 114]”, the “RBA IC50 Ratio” value in the assay with human Y2 receptor [1] was determined as 1.1. In addition, the “GBA EC50 Ratio” value with human Y2 receptor [2] worked out at 0.9.
The corresponding values for “Ac-[D-Hyp24, Cha27,36, Leu(Me)28, Lys30, Aib31]-PYY(23-36) (Ac-S[dHyp]RH[Cha][tBuAla]NK[Aib]TRQR[Cha]-NH2; SMILES CC(=O)N[C@@H](CO)C(=O)N1C[C@@H](O)C[C@@H]1C(=O)N[C@@H](CCCNC(=N)N)C(=O)N[C@@H](Cc1c[nH]cn1)C(=O)N[C@@H](CC1CCCCC1)C(=O)N[C@@H](CC(C)(C)C)C(=O)N[C@@H](CC(N)=O)C(=O)N[C@@H](CCCCN)C(=O)NC(C)(C)C(=O)N[C@H](C(=O)N[C@@H](CCCNC(=N)N)C(=O)N[C@@H](CCC(N)=O)C(=O)N[C@@H](CCCNC(=N)N)C(=O)N[C@@H](CC1CCCCC1)C(N)=O)[C@@H](C)O) [compound No. 203]” are 0.38 and 0.76.
